The results in this text go back to article doi:10.1101/2024.07.12.603347.

Test [1] deals with Biarylitide crosslinking cytochrome P450Blt. In words: UV-visible absorbance titration.
Test [2] concerns the target Cytochrome P450 RufO (Streptomyces atratus). The test is described as follows: UV-visible absorbance titration.

Take “Nle-RYLH (Nle-1), BytA pentapeptide MRYLH with norleucine in place of Met”: the Kd in test [1] amounted to 2100 nM; in test [2] it was 840 nM.
